Assays:
[1] = biological target: T1, Affinity-purified GST-tagged wild type (WT) hXBP1s
T1 chain: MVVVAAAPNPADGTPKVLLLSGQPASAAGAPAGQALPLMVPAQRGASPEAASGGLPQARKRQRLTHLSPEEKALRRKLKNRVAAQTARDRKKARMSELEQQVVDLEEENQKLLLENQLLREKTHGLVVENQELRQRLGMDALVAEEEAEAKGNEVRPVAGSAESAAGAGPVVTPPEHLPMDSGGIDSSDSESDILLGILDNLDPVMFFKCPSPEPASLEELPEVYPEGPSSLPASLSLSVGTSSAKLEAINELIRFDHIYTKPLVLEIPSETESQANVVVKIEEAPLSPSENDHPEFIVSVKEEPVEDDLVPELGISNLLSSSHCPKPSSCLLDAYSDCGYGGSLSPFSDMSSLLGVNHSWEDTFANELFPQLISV

[2] = biological target: T2, Affinity-purified GST-tagged hXBP1s S288A mutant
T2 chain: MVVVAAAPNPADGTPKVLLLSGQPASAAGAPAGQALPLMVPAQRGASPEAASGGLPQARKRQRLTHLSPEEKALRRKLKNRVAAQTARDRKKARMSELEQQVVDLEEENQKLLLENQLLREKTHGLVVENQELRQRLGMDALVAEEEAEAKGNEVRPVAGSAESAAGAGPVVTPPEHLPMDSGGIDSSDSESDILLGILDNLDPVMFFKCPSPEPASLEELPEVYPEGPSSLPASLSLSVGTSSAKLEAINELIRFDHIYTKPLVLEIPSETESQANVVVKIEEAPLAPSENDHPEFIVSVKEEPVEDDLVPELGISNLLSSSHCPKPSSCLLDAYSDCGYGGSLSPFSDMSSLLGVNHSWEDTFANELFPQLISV

[3] = biological target: T3, HA tagged hXBP1s (HA-hXBP1s), wild type, expressed in HEK293T cells
T3 chain: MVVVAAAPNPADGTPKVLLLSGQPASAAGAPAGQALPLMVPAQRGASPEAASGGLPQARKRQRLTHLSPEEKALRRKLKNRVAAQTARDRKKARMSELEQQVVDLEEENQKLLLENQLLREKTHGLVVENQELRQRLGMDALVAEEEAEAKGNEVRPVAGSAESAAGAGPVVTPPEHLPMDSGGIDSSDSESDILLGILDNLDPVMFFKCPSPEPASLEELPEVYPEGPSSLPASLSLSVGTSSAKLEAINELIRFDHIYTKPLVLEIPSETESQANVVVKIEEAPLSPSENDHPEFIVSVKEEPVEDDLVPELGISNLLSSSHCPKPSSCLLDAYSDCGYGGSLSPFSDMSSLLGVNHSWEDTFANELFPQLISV

Row | Protein | in vitro kinase assay, phosphorylation in the presence of ^32P (autoradiography) [1] | in vitro kinase assay, phosphorylation in the presence of ^32P (autoradiography) [2] | ubiquitination assay (conjugation of MYC-Ub to HA-hXBP1s, anti-HA immunoprecipitation probed with anti-MYC) [3]
1 | Active recombinant human JNK3 (Millipore) (protein) MSLHFLYYCSEPTLDVKIAFCQGFDKQVDVSYIAKHYNMSKSKVDNQFYSVEVGDSTFTVLKRYQNLKPIGSGAQGIVCAAYDAVLDRNVAIKKLSRPFQNQTHAKRAYRELVLMKCVNHKNIISLLNVFTPQKTLEEFQDVYLVMELMDANLCQVIQMELDHERMSYLLYQMLCGIKHLHSAGIIHRDLKPSNIVVKSDCTLKILDFGLARTAGTSFMMTPYVVTRYYRAPEVILGMGYKENVDIWSVGCIMGEMVRHKILFPGRDYIDQWNKVIEQLGTPCPEFMKKLQPTVRNYVENRPKYAGLTFPKLFPDSLFPADSEHNKLKASQARDLLSKMLVIDPAKRISVDDALQHPYINVWYDPAEVEAPPPQIYDKQLDEREHTIEEWKELIYKEVMNSEEKTKNGVVKGQPSPSGAAVNSSESLPPSSSVNDISSMSTDQTLASDTDSSLEASAGPLGCCR | JNK1, JNK2 or JNK3 was sufficient to directly phosphorylate hXBP1s | mutation of Ser288 to A abolished JNKs-mediated phosphorylation of hXBP1s | 
2 | FLAG-β-TrCP1, expressed in HEK293T cells (protein) MDPAEAVLQEKALKFMCSMPRSLWLGCSSLADSMPSLRCLYNPGTGALTAFQNSSEREDCNNGEPPRKIIPEKNSLRQTYNSCARLCLNQETVCLASTAMKTENCVAKTKLANGTSSMIVPKQRKLSASYEKEKELCVKYFEQWSESDQVEFVEHLISQMCHYQHGHINSYLKPMLQRDFITALPARGLDHIAENILSYLDAKSLCAAELVCKEWYRVTSDGMLWKKLIERMVRTDSLWRGLAERRGWGQYLFKNKPPDGNAPPNSFYRALYPKIIQDIETIESNWRCGRHSLQRIHCRSETSKGVYCLQYDDQKIVSGLRDNTIKIWDKNTLECKRILTGHTGSVLCLQYDERVIITGSSDSTVRVWDVNTGEMLNTLIHHCEAVLHLRFNNGMMVTCSKDRSIAVWDMASPTDITLRRVLVGHRAAVNVVDFDDKYIVSASGDRTIKVWNTSTCEFVRTLNGHKRGIACLQYRDRLVVSGSSDNTIRLWDIECGACLRVLEGHEELVRCIRFDNKRIVSGAYDGKIKVWDLVAALDPRAPAGTLCLRTLVEHSGRVFRLQFDEFQIVSSSHDDTILIWDFLNDPAAQAEPPRSPSRTYTYISR |  |  | ectopically expressed β-TrCP greatly promoted the conjugation of ubiquitin to HA-hXBP1s
3 | Active recombinant human JNK1α1 (Millipore) (protein) MSRSKRDNNFYSVEIGDSTFTVLKRYQNLKPIGSGAQGIVCAAYDAILERNVAIKKLSRPFQNQTHAKRAYRELVLMKCVNHKNIIGLLNVFTPQKSLEEFQDVYIVMELMDANLCQVIQMELDHERMSYLLYQMLCGIKHLHSAGIIHRDLKPSNIVVKSDCTLKILDFGLARTAGTSFMMTPYVVTRYYRAPEVILGMGYKENVDLWSVGCIMGEMVCHKILFPGRDYIDQWNKVIEQLGTPCPEFMKKLQPTVRTYVENRPKYAGYSFEKLFPDVLFPADSEHNKLKASQARDLLSKMLVIDASKRISVDEALQHPYINVWYDPSEAEAPPPKIPDKQLDEREHTIEEWKELIYKEVMDLEERTKNGVIRGQPSPLAQVQQ | JNK1, JNK2 or JNK3 was sufficient to directly phosphorylate hXBP1s | mutation of Ser288 to A abolished JNKs-mediated phosphorylation of hXBP1s | 

Reference: patent publication US11137400
